# In article PMC6093707, “Single-particle cryo-EM structure of a voltage-activated potassium channel in lipid nanodiscs” (eLife, 2018):
# How the values were obtained:
# [1] = biological target: Kv channel auxiliary β subunit (rat) (UniProt P62483); test: negative staining electron microscopy; Kv chimera in lipid nanodiscs diluted to ~0.03 mg/ml, 0.7% uranyl formate; 2D class averages
# [2] = biological target: Kv channel auxiliary β subunit (rat) (UniProt P62483); test: cryo-EM structure; Kv chimera α4β4 complex in MSP1E3D1 lipid nanodiscs (3:1:1 POPC:POPG:POPE); 0.7 mg/ml in 20 mM HEPES-KOH pH 7.5, 150 mM KCl, 2 mM TCEP; gold grids; C4 symmetry imposed
# [3] = biological target: the molecule itself; test: as above
stoichiometry N [1],stoichiometry N [2],Molecule,stoichiometry N [3]
4,4,Kv channel auxiliary β subunit (from UniProt P62483 36-367) (natural protein),–
–,–,"Kv1.2–2.1 paddle chimera channel, α subunit (other) MTVATGDPVDEAAAHPGHPQDTYDPEADHECCERVVINISGLRFETQLKTLAQFPETLLGDPKKRMRYFDPLRNEYFFDRNRPSFDAILYYYQSGGRLRRPVNVPLDIFSEEIRFYELGEEAMEMFREDEGYIKEEERPLPENEFQRQVWLLFEYPESSGPARIIAIVSVMVILISIVSFCLETLPIFRDENEDMHGGGVTFHTYSQSTIGYQQSTSFTDPFFIVETLCIIWFSFEFLVRFFACPSKAGFFTNIMNIIDIVAIIPYYVTIFLTESNKSVLQFQNVRRVVQIFRIMRILRIFKLSRHSKGLQILGQTLKASMRELGLLIFFLFIGVILFSSAVYFAEADERDSQFPSIPDAFWWAVVSMTTVGYGDMVPTTIGGKIVGSLCAIAGVLTIALPVPVIVSNFNYFYHRETEGEEQAQYLQVTSCPKIPSSPDLKKSRSASTISKSDYMEIQEGVNNSNEDFREENLKTANCTLANTNYVNITKMLTDV",4
